{"source": "patent US20070042353", "key": {"[1]": {"target": "HCV NS5B536 (Hepatitis C virus (BK strain, genotype 1b)) (UniProt P26663)", "settings": "[3H]UTP incorporation, 5 mM MgCl2, 50 mM NaCl, pH 7.5, 25 C, 90 min"}, "[2]": {"target": "HCV NS5B544 (Hepatitis C virus (BK strain, genotype 1b)) (UniProt P26663)", "settings": "[3H]UTP incorporation, 5 mM MgCl2, 50 mM NaCl, pH 7.5, 25 C, 90 min"}, "[3]": {"target": "HCV NS5B531 (Hepatitis C virus (BK strain, genotype 1b)) (UniProt P26663)", "settings": "[3H]UTP incorporation, 5 mM MgCl2, 50 mM NaCl, pH 7.5, 25 C, 90 min"}, "[4]": {"target": "HCV NS5B552 (Hepatitis C virus (BK strain, genotype 1b)) (UniProt P26663)", "settings": "[3H]UTP incorporation, 5 mM MgCl2, 50 mM NaCl, pH 7.5, 25 C, 90 min"}, "[5]": {"target": "HCV NS5B591 (full length) (Hepatitis C virus (BK strain, genotype 1b)) (UniProt P26663)", "settings": "reference enzyme; [3H]UTP incorporation, 5 mM MgCl2, 50 mM NaCl, pH 7.5, 25 C, 90 min"}, "[6]": {"target": "HCV NS5B570 (Hepatitis C virus (BK strain, genotype 1b)) (UniProt P26663)", "settings": "[3H]UTP incorporation, 5 mM MgCl2, 50 mM NaCl, pH 7.5, 25 C, 90 min"}}, "data": [{"substance": "HCV NS5B 3' end + 3'UTR (polyU and 3'X) template RNA, about 450 nt", "values": [{"measurement": "activity", "setting": "[1]", "value": "2110 % of NS5B591"}, {"measurement": "activity", "setting": "[2]", "value": "2010 % of NS5B591"}, {"measurement": "activity", "setting": "[3]", "value": "2150 % of NS5B591"}, {"measurement": "activity", "setting": "[4]", "value": "147 % of NS5B591"}, {"measurement": "activity", "setting": "[5]", "value": "100 % of NS5B591"}, {"measurement": "activity", "setting": "[6]", "value": "3 % of NS5B591"}]}]}
